From paper PMC5474692
Where two headings read alike, the source gives them in different places. Values belong to the substance of their own block, whether it stands above or below them.

What was measured:
Assay in all cases: fluorescence anisotropy against solution viscosity
Rosmarinus [1] = target: Rosmarinus
Rosmarinus [2] = target: Rosmarinus; remark: listed apart in the source
Rosmarinus [3] = target: Rosmarinus; remark: listed apart in the source
amFP486/K68M = amFP486/K68M (UniProt Q9U6Y6)
eqFP486 = target: eqFP486

Substance: Rosmarinus
stoichiometry N (Rosmarinus [1]): 4
stoichiometry N (Rosmarinus [2]): 2
stoichiometry N (Rosmarinus [3]): 4

stoichiometry N (amFP486/K68M): 4
Substance: amFP486/K68M (from UniProt Q9U6Y6 1-229) (natural protein)

Substance: eqFP486 (natural protein)
stoichiometry N (eqFP486): 2
